Results from PMC9425028.

B1: wild-type recombinant mouse MASP-3 fused with PA-tag (WT rmMASP-3-PA) [mouse] / mouse ficolin-A [mouse (endogenous in serum of C57BL/6J mice)] (parent)
chain 1: HTVELNEMFGQIQSPGYPDSYPSDSEVTWNITVPEGFRIKLYFMHFNLESSYLCEYDYVKVETEDQVLATFCGRETTDTEQTPGQEVVLSPGTFMSVTFRSDFSNEERFTGFDAHYMAVDVDECKEREDEELSCDHYCHNYIGGYYCSCRFGYILHTDNRTCRVECSGNLFTQRTGTITSPDYPNPYPKSSECSYTIDLEEGFMVSLQFEDIFDIEDHPEVPCPYDYIKIKAGSKVWGPFCGEKSPEPISTQTHSVQILFRSDNSGENRGWRLSYRAAGNECPKLQPPVYGKIEPSQAVYSFKDQVLVSCDTGYKVLKDNEVMDTFQIECLKDGAWSNKIPTCKIVDCGAPAGLKHGLVTFSTRNNLTTYKSEIRYSCQQPYYKMLHNTTGVYTCSAHGTWTNEVLKRSLPTCLPVCGQPSRALPNLVKRIIGGRNAELGLFPWQALIVVEDTSRVPNDKWFGSGALLSESWILTAAHVLRSQRRDNTVIPVSKEHVTVYLGLHDVRDKSGAVNSSAARVILHPDFNIQNYNHDIALVQLQKPVPLGAHVMPICLPRPEPEGPAPHMLGLVAGWGISNPNVTVDEIILSGTRTLSDVLQYVKLPVVSHAECKASYESRSGNYSVTENMFCAGYYEGGKDTCLGDSGGAFVIFDEMSQHWVAQGLVSWGGPEECGSKQVYGVYTKVSNYVDWLWEEMNSPRAVRDLQVER
chain 2: SQALGQERGACPDVKVVGLGAQDKVVVIQSCPGFPGPPGPKGEPGSPAGRGERGFQGSPGKMGPAGSKGEPGTMGPPGVKGEKGDTGAAPSLGEKELGDTLCQRGPRSCKDLLTRGIFLTGWYTIHLPDCRPLTVLCDMDVDGGGWTVFQRRVDGSIDFFRDWDSYKRGFGNLGTEFWLGNDYLHLLTANGNQELRVDLQDFQGKGSYAKYSSFQVSEEQEKYKLTLGQFLEGTAGDSLTKHNNMSFTTHDQDNDANSMNCAALFHGAWWYHNCHQSNLNGRYLSGSHESYADGINWGTGQGHHYSYKVAEMKIRAS
B2: wild-type recombinant mouse MASP-3 fused with PA-tag (WT rmMASP-3-PA) [mouse] / mouse collectin kidney 1 (CL-K1) [mouse (endogenous in serum of C57BL/6J mice)] (parent)
chain 1: B1 chain 1
chain 2: QQTTEDACSVQILVPGLKGDAGEKGDKGAPGRPGRVGPTGEKGDMGDKGQKGTVGRHGKIGPIGAKGEKGDSGDIGPPGPSGEPGIPCECSQLRKAIGEMDNQVTQLTTELKFIKNAVAGLRETESKIYLLVKEEKRYADAQLSCQARGGTLSMPKDEAANGLMASYLAQAGLARVFIGINDLEKEGAFVYSDRSPMQTFNKWRSGEPNNAYDEEDCVEMVASGGWNDVACHITMYFMCEFDKENL

Variants of: B1
Assay: immunoprecipitation with anti-PA tag antibody beads from mouse serum, Western blot band intensity
Conditions: with mouse ficolin-A [mouse (endogenous in serum of C57BL/6J mice)]; TBS containing 7 mM MgCl2 and 5 mM CaCl2 (TBS/Mg/Ca); parent: 1; read off a plot

| ratio to parent | Variant |
| --- | --- |
| 0.09 | chain 1 E49A |
| 0.04 | chain 1 D102A |
| 0.04 | chain 1 H218A |
| 0.06 | chain 1 Y225A |

Variants of: B2
Assay: as above
Conditions: with mouse collectin kidney 1 (CL-K1) [mouse (endogenous in serum of C57BL/6J mice)]; TBS containing 7 mM MgCl2 and 5 mM CaCl2 (TBS/Mg/Ca); parent: 1; read off a plot

| ratio to parent | Variant |
| --- | --- |
| 0.03 | chain 1 D102A |
| 0.04 | chain 1 H218A |
| 0.02 | chain 1 E49A |
| 0.07 | chain 1 Y225A |
